Experimental data published in the supplement of paper PMC9112550, “Optimization of the antimicrobial peptide Bac7 by deep mutational scanning” (BMC Biology, 2022).

Test system: Escherichia coli TOP10
Assay: shrunken log2 fold change of peptide-encoding DNA abundance (4.5 h post-induction vs induction); higher = less antimicrobial activity (less host growth inhibition)
Conditions: time post-induction: 4.5 h; library: site-saturation at positions 5, 18, 19, 20
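Further: peptides expressed intracellularly from a pBAD plasmid library in pooled LB shake-flask culture, induced with 0.3% L-arabinose, DNA abundance read by NGS, three biological replicates, DESeq2 with apeglm shrinkage.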

Sequence	shrunken log2 fold change
RRIRQRPPRLPRPRPRPFVSPRP	-0.216
RRIRLRPPRLPRPRPRPYCPPRP	-0.24
RRIRVRPPRLPRPRPRPEWLPRP	0.0685
RRIRLRPPRLPRPRPRPPMPPRP	0.0906
RRIRARPPRLPRPRPRPAHNPRP	0.155
RRIRVRPPRLPRPRPRPGIPPRP	-0.103
RRIRHRPPRLPRPRPRPIPTPRP	-0.218
RRIRIRPPRLPRPRPRPTMQPRP	0.0261
RRIRNRPPRLPRPRPRPEFPPRP	0.0125
RRIRIRPPRLPRPRPRPAASPRP	0.241
RRIRDRPPRLPRPRPRPEMHPRP	0.891
RRIRTRPPRLPRPRPRPYYHPRP	-0.581
RRIRLRPPRLPRPRPRPLIDPRP	-0.258
RRIRPRPPRLPRPRPRPCLDPRP	-0.251
RRIRCRPPRLPRPRPRPFVQPRP	-0.86
RRIRYRPPRLPRPRPRPVSIPRP	-0.821
RRIRMRPPRLPRPRPRPRQNPRP	0.62
RRIRSRPPRLPRPRPRPSYWPRP	2.29
RRIRYRPPRLPRPRPRPCMTPRP	-0.34
RRIRKRPPRLPRPRPRPCTLPRP	0.0143
RRIRFRPPRLPRPRPRPVPAPRP	0.217
RRIRIRPPRLPRPRPRPRFVPRP	-0.104
RRIRLRPPRLPRPRPRPVCWPRP	0.462
RRIRRRPPRLPRPRPRPMWCPRP	0.135
RRIRNRPPRLPRPRPRPLLNPRP	-0.443

Sequence	shrunken log2 fold change
RRIRTRPPRLPRPRPRPGIRPRP	-0.0147
RRIRKRPPRLPRPRPRPTYLPRP	-0.201
RRIRPRPPRLPRPRPRPNYCPRP	-0.239
RRIRNRPPRLPRPRPRPASKPRP	0.0111
RRIRNRPPRLPRPRPRPNLSPRP	-0.0459
RRIRARPPRLPRPRPRPSNYPRP	-0.901
RRIRWRPPRLPRPRPRPHNQPRP	-0.445
RRIRPRPPRLPRPRPRPWVHPRP	-0.0708
RRIRMRPPRLPRPRPRPDKGPRP	-0.0141
RRIRWRPPRLPRPRPRPWFTPRP	-0.0224
RRIRPRPPRLPRPRPRPQVGPRP	0.0207
RRIRNRPPRLPRPRPRPPYTPRP	-0.876
RRIRYRPPRLPRPRPRPTGDPRP	0.00498
RRIRPRPPRLPRPRPRPMLRPRP	0.34
RRIRKRPPRLPRPRPRPCNVPRP	-0.192
RRIRKRPPRLPRPRPRPWHAPRP	-0.0686
RRIRSRPPRLPRPRPRPFQIPRP	0.0213
RRIRSRPPRLPRPRPRPCNTPRP	-0.324
RRIRWRPPRLPRPRPRPYAFPRP	0.107
RRIRSRPPRLPRPRPRPASEPRP	-0.00793
RRIRMRPPRLPRPRPRPMHWPRP	-0.0799
RRIRARPPRLPRPRPRPHRAPRP	0.216
RRIRQRPPRLPRPRPRPQARPRP	-0.0121
RRIRPRPPRLPRPRPRPAEMPRP	0.189
RRIRRRPPRLPRPRPRPQFVPRP	0.153

Sequence	shrunken log2 fold change
RRIRNRPPRLPRPRPRPWGYPRP	-0.123
RRIRYRPPRLPRPRPRPQAYPRP	-0.00884
RRIRSRPPRLPRPRPRPVHYPRP	-0.707
RRIRFRPPRLPRPRPRPITLPRP	-0.274
RRIRTRPPRLPRPRPRPDFNPRP	-0.177
RRIRMRPPRLPRPRPRPMLYPRP	0.0885
RRIRLRPPRLPRPRPRPGIVPRP	-0.16
RRIRWRPPRLPRPRPRPRIIPRP	0.136
RRIRLRPPRLPRPRPRPSARPRP	0.0346
RRIRWRPPRLPRPRPRPFHGPRP	-0.229
RRIRCRPPRLPRPRPRPWNIPRP	0.0152
RRIRERPPRLPRPRPRPSSRPRP	-0.107
RRIRCRPPRLPRPRPRPFQHPRP	-0.221
RRIRIRPPRLPRPRPRPFTCPRP	0.0493
RRIRVRPPRLPRPRPRPDETPRP	0.126
RRIRGRPPRLPRPRPRPLIPPRP	-0.0737
RRIRSRPPRLPRPRPRPKCPPRP	-0.118
RRIRNRPPRLPRPRPRPALTPRP	-0.158
RRIRRRPPRLPRPRPRPGVCPRP	0.369
RRIRHRPPRLPRPRPRPGMEPRP	-0.0685
RRIRFRPPRLPRPRPRPTMDPRP	-0.246
RRIRFRPPRLPRPRPRPPIVPRP	-0.126
RRIRSRPPRLPRPRPRPWWTPRP	-0.127
RRIRVRPPRLPRPRPRPNGYPRP	-0.199
RRIRCRPPRLPRPRPRPYRDPRP	-0.16

Sequence	shrunken log2 fold change
RRIRIRPPRLPRPRPRPPTYPRP	-0.427
RRIRERPPRLPRPRPRPCRKPRP	-0.103
RRIRSRPPRLPRPRPRPPASPRP	0.694
RRIRIRPPRLPRPRPRPMTGPRP	-0.4
RRIRIRPPRLPRPRPRPRFDPRP	-0.282
RRIRCRPPRLPRPRPRPDEIPRP	0.146
RRIRMRPPRLPRPRPRPVGHPRP	0.193
RRIRFRPPRLPRPRPRPLCYPRP	-0.557
RRIRCRPPRLPRPRPRPWMDPRP	-0.169
RRIRARPPRLPRPRPRPCEGPRP	0.0679
RRIRWRPPRLPRPRPRPVLSPRP	0.415
RRIRDRPPRLPRPRPRPQFAPRP	-0.0178
RRIRTRPPRLPRPRPRPPRDPRP	0.4
RRIRQRPPRLPRPRPRPVNFPRP	-0.346
RRIRWRPPRLPRPRPRPHNRPRP	-0.205
RRIRWRPPRLPRPRPRPPPQPRP	0.905
RRIRCRPPRLPRPRPRPLNCPRP	-0.279
RRIRRRPPRLPRPRPRPRRYPRP	0.0835
RRIRFRPPRLPRPRPRPAITPRP	-0.136
RRIRPRPPRLPRPRPRPTPKPRP	0.528
RRIRWRPPRLPRPRPRPLTMPRP	0.0382
RRIRRRPPRLPRPRPRPNPDPRP	0.314
RRIRVRPPRLPRPRPRPKLEPRP	0.09
RRIRLRPPRLPRPRPRPIGKPRP	-0.335
RRIRDRPPRLPRPRPRPIMVPRP	-0.103

Sequence	shrunken log2 fold change
RRIRWRPPRLPRPRPRPVWAPRP	0.263
RRIRHRPPRLPRPRPRPCNQPRP	-0.185
RRIRSRPPRLPRPRPRPEDWPRP	0.802
RRIRGRPPRLPRPRPRPSKVPRP	-0.116
RRIRFRPPRLPRPRPRPKYHPRP	-0.428
RRIRHRPPRLPRPRPRPVVVPRP	-0.149
RRIRYRPPRLPRPRPRPTHYPRP	-0.867
RRIRWRPPRLPRPRPRPHHVPRP	-0.108
RRIRSRPPRLPRPRPRPAQHPRP	0.0967
RRIRQRPPRLPRPRPRPQDQPRP	-0.276
RRIRFRPPRLPRPRPRPMTMPRP	-0.132
RRIRSRPPRLPRPRPRPPNLPRP	-0.148
RRIRDRPPRLPRPRPRPIHSPRP	-0.00999
RRIRARPPRLPRPRPRPDRTPRP	0.192
RRIRNRPPRLPRPRPRPLCKPRP	-0.146
RRIRKRPPRLPRPRPRPPWGPRP	0.501
RRIRVRPPRLPRPRPRPTWSPRP	0.0201
RRIRKRPPRLPRPRPRPGWVPRP	0.573
RRIRLRPPRLPRPRPRPNHPPRP	-0.498
RRIRCRPPRLPRPRPRPWCQPRP	-0.32
RRIRQRPPRLPRPRPRPQPIPRP	0.136
RRIRRRPPRLPRPRPRPARSPRP	0.512
RRIRPRPPRLPRPRPRPELGPRP	0.24
RRIRSRPPRLPRPRPRPGDQPRP	0.0164
RRIRTRPPRLPRPRPRPVLMPRP	0.187

Sequence	shrunken log2 fold change
RRIRHRPPRLPRPRPRPMCSPRP	-0.0225
RRIRTRPPRLPRPRPRPWLMPRP	-0.11
RRIRHRPPRLPRPRPRPCTNPRP	-0.249
RRIRDRPPRLPRPRPRPKFTPRP	-0.0602
RRIRKRPPRLPRPRPRPIRGPRP	0.0181
RRIRFRPPRLPRPRPRPIWNPRP	-0.147
RRIRHRPPRLPRPRPRPKGQPRP	-0.00141
RRIRKRPPRLPRPRPRPAYMPRP	0.0668
RRIRNRPPRLPRPRPRPTPHPRP	0.284
RRIRWRPPRLPRPRPRPWPLPRP	-0.273
RRIRPRPPRLPRPRPRPNSLPRP	-0.272
RRIRQRPPRLPRPRPRPGGVPRP	0.463
RRIRWRPPRLPRPRPRPSKMPRP	-0.0978
RRIRQRPPRLPRPRPRPVGYPRP	0.101
RRIRNRPPRLPRPRPRPPCRPRP	-0.0266
RRIRIRPPRLPRPRPRPCYCPRP	-0.0457
RRIRSRPPRLPRPRPRPSYEPRP	-0.426
RRIRYRPPRLPRPRPRPDGCPRP	-0.029
RRIRYRPPRLPRPRPRPSMEPRP	-0.408
RRIRYRPPRLPRPRPRPPPDPRP	0.7
RRIRTRPPRLPRPRPRPMLCPRP	-0.00838
RRIRWRPPRLPRPRPRPYKAPRP	0.0233
RRIRDRPPRLPRPRPRPWEDPRP	0.0111
RRIRWRPPRLPRPRPRPGTIPRP	-0.283
RRIRSRPPRLPRPRPRPRFGPRP	0.342
